Test results: patent publication US12337027B2, “Methods and compositions relating to lung repair” (THE CHILDREN'S MEDICAL CENTER CORPORATION, priority 2018, dated 2025)
Entries after “also recorded” stand apart in the source; their conditions may differ.

B1: sFlt1: soluble variant of the VEGF receptor encoded by the Flt1 gene (protein, listed as Homo sapiens)
chain: MVSYWDTGVLLCALLSCLLLTGSSSGSKLKDPELSLKGTQHIMQAGQTLHLQCRGEAAHKWSLPEMVSKESERLSITKSACGRNGKQFCSTLTLNTAQANHTGFYSCKYLAVPTSKKKETESAIYIFISDTGRPFVEMYSEIPEIIHMTEGRELVIPCRVTSPNITVTLKKFPLDTLIPDGKRIIWDSRKGFIISNATYKEIGLLTCEATVNGHLYKTNYLTHRQTNTIIDVQISTPRPVKLLRGHTLVLNCTATTPLNTRVQMTWSYPDEKNKRASVRRRIDQSNSHANIFYSVLTIDKMQNKDKGLYTCRVRSGPSFKSVNTSVHIYDKAFITVKHRKQQVLETVAGKRSYRLSMKVKAFPSPEVVWLKDGLPATEKSARYLTRGYSLIIKDVTEEDAGNYTILLSIKQSNVFKNLTATLIVNVKPQIYEKAVSSFPDPALYPLGSRQILTCTAYGIPQPTIKWFWHPCNHNHSEARCDFCSNNEESFILDADSNMGNRIESITQRMAIIEGKNKMASTLVVADSRISGIYICIASNKVGTVGRNISFYITDVPNGFHVNLEKMPTEGEDLKLSCTVNKFLYRDVTWILLRTVNNRTMHYSISKQKMAITKEHSITLNLTIMNVSLQDSGTYACRARNVYTGEEILQKKEITIRGEHCNKKAVFSRISKFKSTRNDCTTQSNVKH

Columns and labels:
[1] = tested on: C57B16 mice following left pneumonectomy; experiment: Compensatory lung growth after left pneumonectomy (lung volume by water displacement); format: in vivo; conditions: for lung growth: compensatory lung growth after pneumonectomy
Experimental: (§1) C57B16 mice were randomized to receive daily intraperitoneal injection of either saline or soluble fms-like tyrosine kinase 1 (sFlt1) at a dose of 20 mcg/kg following left pneumonectomy. On post-operative day 4, mice underwent pulmonary function studies and were subsequently euthanized for lung volume measurement. Lung volume was determined by water displacement method. […] This therapy can potentially improve lung growth and pulmonary functions in patients suffering from severe pulmonary hypoplasia.
(§2) sFlt1 was administered to mice according to the experimental design depicted in FIG. 6. […] The dose response to sFlt1 was investigated (FIG. 8) and, in mice, 20 mcg/kg sFlt1 was the optimal dosing regimen (FIG. 9).

[2] = tested on: mice; experiment: Exercise tolerance tests; format: in vivo
[3] = tested on: mice after 70% partial hepatectomy; experiment: Liver regeneration after 70% partial hepatectomy; format: in vivo; conditions: 10, 20, or 50 ug/kg daily intraperitoneal vs saline, POD 4
Experimental: Mice underwent 70% partial hepatectomy and were randomized to receive saline (control) or one of 3 doses of Flt1 (10, 20, or 50 ug/kg) via intraperitoneal injection. Treatment was performed daily and mice were euthanized on post-operative day (POD) 4 for organ harvest. Liver samples were weighed and normalized against body weight.

[4] = tested on: HIF-2α; experiment: HIF-2α levels after sFlt1 administration (incl. immunohistochemistry); format: in vivo, mice; conditions: FIG. 11, 12
Description: FIG. 12 depicts immunohistochemical measurements of HIF-2α levels.

[5] = tested on: VEGF; experiment: VEGF levels after sFlt1 administration; format: in vivo, mice; conditions: FIG. 11
[6] = tested on: liver and spleen; design: species or system mice; conditions: mouse, in vivo
Experimental: LW/BW: liver weight/body weight, SW/BW: spleen weight/body weight.
as §1

[7] = tested on: C57B16 mice following left pneumonectomy; experiment: Pulmonary function studies after left pneumonectomy; format: in vivo
Experimental: as §1, §2

[8] = sFlt1 20 mcg/kg daily intraperitoneal vs saline, post-operative day 4

| Molecule | effect of HIF-2α inhibition on sFlt1-induced lung growth ([1]; PT-2385 given with sFlt1, FIG. 15) | effect of HIF-2α inhibition on sFlt1 effect on exercise tolerance ([2]; PT-2385 given with sFlt1, FIG. 16, 17) | liver weight normalized against body weight [3] | levels of HIF-2α [4] | levels of VEGF [5] | organ mass of liver (LW/BW: liver weight/body weight) [6] | organ mass of spleen (SW/BW: spleen weight/body weight) [6] | lung growth [1] | lung growth ([1]; listed as soluble VEGF receptor) | optimal dosing regimen (dose response) ([1]; in mice, FIG. 9) [mg/kg] | lung volume (LV/BW: lung volume/body weight) [1, 8] | baseline activity in exercise tolerance tests ([2]; FIG. 16) | inspiratory capacity (IC/BW) [7, 8] | pulmonary compliance [7, 8] | pulmonary elastance [7, 8] | pulmonary mechanics ([7]; sFlt1 at 20 mcg/kg, FIG. 10) |
| --- | --- | --- | --- | --- | --- | --- | --- | --- | --- | --- | --- | --- | --- | --- | --- | --- |
| CS(=O)(=O)c1ccc(Oc2cc(F)cc(C#N)c2)c2c1[C@H](O)C(F)(F)C2 [PT-2385, reference compound] | blunt the effects of sFlt1 | blunt the effects of sFlt1 | – | – | – | – | – | – | – | – | – | – | – | – | – | – |
| B1 | – | – | no difference in liver weight | unexpectedly increases | unexpectedly increases | does not change | does not change | increases lung growth; also recorded: accelerated lung growth | accelerated compensatory lung growth | 0.02 | significantly higher lung volume; also recorded: increases lung volume | increased baseline activity | significantly higher; also recorded: improve; also recorded: increases inspiratory capacity | improves | improves | improved pulmonary mechanics |
